Patent US20240409645A1 (DUALYX, published 2024)
Residue numbers refer to the chain shown, from its start.

T1: human common cytokine receptor γ-chain (IL-2Rγ) (human, UniProt P31785 23-262, limits assumed)
T1 construct: Recombinant human IL-2Rγ protein, coated (ELISA) or amine-coupled to a CM5 chip (SPR); also called hu IL-2R; CD132
T1 sequence: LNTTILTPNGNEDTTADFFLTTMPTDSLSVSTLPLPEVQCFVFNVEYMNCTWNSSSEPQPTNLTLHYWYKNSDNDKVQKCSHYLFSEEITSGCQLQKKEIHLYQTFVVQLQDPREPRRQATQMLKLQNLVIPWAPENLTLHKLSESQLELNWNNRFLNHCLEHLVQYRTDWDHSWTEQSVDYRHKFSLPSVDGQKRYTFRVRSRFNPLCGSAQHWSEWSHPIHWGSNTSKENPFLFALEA

T2: mouse common cytokine receptor γ-chain (IL-2Rγ) (mouse, UniProt P34902 23-263, limits assumed)
T2 construct: Recombinant mouse IL-2Rγ protein; also called mo IL-2R; mouse IL-2R gamma
T2 sequence (looked up): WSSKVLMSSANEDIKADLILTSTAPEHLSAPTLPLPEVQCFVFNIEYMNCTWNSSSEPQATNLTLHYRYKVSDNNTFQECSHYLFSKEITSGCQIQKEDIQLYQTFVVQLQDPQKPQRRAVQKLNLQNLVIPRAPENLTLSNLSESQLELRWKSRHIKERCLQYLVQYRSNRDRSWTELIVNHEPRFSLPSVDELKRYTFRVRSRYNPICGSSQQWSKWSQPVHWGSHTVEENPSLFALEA

B1: FJ1427_P035MP07A02 (VHH)
VHH: QVQLVESGGGLVQAGGSLRLSCAASGRALSRLAMGWFRQAPGKEREFVVASSWGDDTFYADSVKGRFTFSRDNAKNTVYLQMNSLQPGDTAVYYCAAAPTSFATTAYSSSNSYAYWGQGTQVTASS
notes: tested as periplasmic extract; also called Clone nr
B2: FJ1427_P035MP07B04 (VHH)
VHH: B1 VHH with Q1E, A28T, L32Y, V49T, S51N, D55G, F58Y, K64Q, G88E, A124V
notes: tested as periplasmic extract; also called Clone nr; 602
B3: FJ1427_P035MP07A06 (VHH)
VHH: B1 VHH with A14P, A28T, L32Y, V49T, S51N, D55G, F58Y, K64Q, G88E, A124V
notes: as for B1
B4: FJ1427_P035MP07B03 (VHH)
VHH: B1 VHH with Q1E, A124V
notes: as for B1
B5: FJ1427_P035MP07C06 (VHH)
VHH: B1 VHH with A28T, L32Y, V49T, S51N, D55G, F58Y, K64Q, K75E, G88E, A124V
notes: as for B1
B6: FJ1427_P035MP07D08 (VHH)
VHH: B1 VHH with V2L, A28T, L32Y, V49T, S51N, D55G, F58Y, K64Q, G88E, A124V
notes: as for B1
B7: FJ1427_P035MP07B11 (VHH)
VHH: B1 VHH with K64E, N76S, A124V, S125P
notes: as for B1
B8: FJ1427_P035MP07D02 (VHH)
VHH: B1 VHH with V5Q, A124V
notes: tested as periplasmic extract; also called Clone nr; 588
B9: FJ1427_P035MP07A05 (VHH)
VHH: B1 VHH with Q1E, A28T, L32Y, V49T, S51N, D55G, F58Y, K64Q, G88E, A124V
notes: as for B1
B10: FJ1427_P035MP07D01 (VHH)
VHH: QVQLVESGGGLVQAGGSLRLSCAASGRTLSRYAMGWFRQAPGKEREFVAANSWGGDTYYTDSVEGRFTFSRDNAKNAVYLQMNSLQPGDTAVYYCAAAPTSFATTAYSSSNSYSYWGQGTQVTVSS
notes: tested as periplasmic extract; also called Clone nr; 580
B11: FJ1427_P035MP07A03 (VHH)
VHH: B10 VHH with Q1E, F47Y, A50I, N51D, Y58F, T60A, A77E, G88E, A97G, S114R
notes: as for B1
B12: FJ1427_P035MP07A09 (VHH)
VHH: B1 VHH with A124V
notes: as for B1
B13: FJ1427_P035MP07D06 (VHH)
VHH: B10 VHH with Q1E, A49T, T60A, E64Q, A77T, G88E, S114A
notes: tested as periplasmic extract; also called Clone nr; 620
B14: FJ1427_P035MP07D05 (VHH)
VHH: B10 VHH with Y32N, N51D, Y58F, T60A, G88E, A97G, S114R
notes: as for B1
B15: FJ1427_P035MP07B09 (VHH)
VHH: B1 VHH with A124V
notes: as for B1
B16: FJ1427_P035MP07C09 (VHH)
VHH: B10 VHH with F47Y, A50I, N51D, Y58F, T60A, A77E, G88E, A97G, S114R
notes: tested as periplasmic extract; also called Clone nr; 643
B17: FJ1427_P035MP07B06 (VHH)
VHH: B10 VHH with Q1E, A49T, T60A, E64Q, A77T, G88E, S114A
notes: tested as periplasmic extract; also called Clone nr; 618
B18: FJ1427_P035MP07C01 (VHH)
VHH: QVQLVESGGGLVQAGDSLRLSCVASGRTLSRCAMGWFRKAPGKEREYVAISSWGGDTFYEDSVEGRFTFSRDNAKNTVYLQMNSLRPEDTAVYYCAAAPTSFATTAYSSSNSYAYWGQGTQVTVSS
notes: as for B1
B19: FJ1427_P035MP07B10 (VHH)
VHH: B10 VHH with N51D, Y58F, T60A, V78A, G88E, V92T, A97G, S114R
notes: tested as periplasmic extract; also called Clone nr; 650
B20: FJ1427_P035MP07B02 (VHH)
VHH: B1 VHH with Q1E, A124V
notes: as for B1
B21: FJ1427_P035MP07B08 (VHH)
VHH: B10 VHH with Q1E, L11S, A14P, A49T, T60A, E64Q, A77T, G88E, S114A
notes: tested as periplasmic extract; also called Clone nr; 634
B22: FJ1427_P035MP07C03 (VHH)
VHH: B10 VHH with Q1E, A49T, T60A, E64Q, A77T, G88E, S114A
notes: as for B1
B23: FJ1427_P035MP07C05 (VHH)
VHH: B1 VHH with Q1E, A14P, A124V
notes: tested as periplasmic extract; also called Clone nr; 611

target: T1, human common cytokine receptor γ-chain …; experiment: P.E. binding ELISA
Description: (§1) In a binding ELISA, human or mouse IL-2Rα, IL-2Rβ and IL-2Rγ proteins were coated directly on maxisorp microtiter plates overnight at 4° C. Free binding sites were blocked using 4% Marvel in PBS for 1 hour. Next, 1:5 dilution of P.E. in 1% Marvel/PBS were added to wells and incubated for 1 hour. […] Binding specificity was determined based on O.D. at 450 nm values compared to negative controls.

Binder	PE binding ELISA OD [OD450 nm]
B1	0.829
B2	0.97
B3	1.12
B4	1.55
B5	0.319
B6	1.03
B7	1.25
B8	0.599
B9	0.973
B10	1.19
B11	1.69
B12	0.518
B13	0.919
B14	0.733
B15	1.27
B16	0.723
B17	0.902
B18	0.945
B19	0.716
B20	1.32
B21	0.425
B22	0.982
B23	0.479

target: T2, mouse common cytokine receptor γ-chain …; experiment: P.E. binding ELISA
Description: as §1

Binder	PE binding ELISA OD [OD450 nm]
B1	0.063
B2	0.047
B3	0.047
B4	0.058
B5	0.045
B6	0.05
B7	0.246
B8	0.057
B9	0.046
B10	0.051
B11	0.869
B12	0.055
B13	0.045
B14	0.054
B15	0.082
B16	0.755
B17	0.045
B18	0.923
B19	0.059
B20	0.061
B21	0.044
B22	0.046
B23	0.047

target: T1, human common cytokine receptor γ-chain …; experiment: P.E. off-rate SPR
Description: (§2) SPR was performed to determine dissociation rates using Biacore 3000 instrument (GE Healthcare). Briefly, human and mouse IL-2R proteins were immobilized on carboxylmethyl dextran sensor chip (CM5) at approximately 2500 RUs using amine coupling in acetate buffer (GE Healthcare). The VHH-containing P.E. were loaded with a flow rate of 30 uL/min and the off-rates were measured over a 120s period.

Binder	koff [s⁻¹]
B1	0.00176
B2	0.00277
B3	0.00273
B4	0.00278
B5	0.00279
B6	0.00263
B7	0.00214
B8	0.00152
B9	0.00323
B10	0.00294
B11	0.00174
B12	0.00161
B13	0.00288
B14	0.00153
B15	0.00168
B16	0.00137
B17	0.00322
B18	0.00113
B19	0.00175
B20	0.00232
B21	0.00326
B22	0.00353
B23	0.00182

target: T2, mouse common cytokine receptor γ-chain …; experiment: P.E. off-rate SPR
Description: as §2

Binder	koff [s⁻¹]
B1	0.0116
B2	0.114
B3	0.109
B4	0.0132
B5	0.111
B6	0.0991
B7	0.0114
B8	0.0127
B9	0.127
B10	0.113
B11	0.00795
B12	0.0119
B13	0.126
B14	0.0609
B15	0.0127
B16	0.00703
B17	0.112
B18	0.00694
B19	0.0501
B20	0.0151
B21	0.144
B22	0.114
B23	0.0128
